Results published in paper PMC6923934, “The peptide transporter 1a of the zebrafish Danio rerio, an emerging model in nutrigenomics and nutrition research: molecular characterization, functional properties, and expression analysis” (Genes & Nutrition, 2019).

B1: zebrafish PepT1b (Slc15a1b) (Danio rerio) (protein)
chain: MADKEGHKQKKERASCFGYPVSIFFIVVNEFCERFSYYGMKAVLVLYFKYFIGWDDDLSTTIYHTFVALCYLTPIMGAIIADSWLGKFKTIVYLSIVYTIGQVIMAISAIHDITDANRDGKPDNKTLHISLSMLGLILIALGTGGIKPCVAAFGGDQFEDHQEKQRSTFFSIFYLSINAGSLLSTLITPILRSQECGIYAKQSCYPLAFGVPAALMVVALIVFVIGHKMYIMESPKGNILLQVINCIGFALNNRFRHRGKQYPKREHWMDWAEEKYDKLLIAQVKMVVKVLFLYIPLPMFWALFDQQGSRWTIQATTMDGNFGGFVIQPDQMQIVNPILIVIMVPIMDSAIYPLIKLCRINFTPLRKMTVGMVLAALAFVAAALLQLQIDETMPKFPSTSQTQLKFLNVESTSLPVVVEGQDQFMVPGFNASSEYLTLDKENVTISAGGVNDTAFLKTGTRHTVLMNAAGMRNTLDDLTEKPEQGLNAIRFVNGWENRLNVSVKSDNVHADPLDASVYLLVPHGKVNFTIFDGGDGKCHYIMQLGFGSTYTVLIPSTFAFGQTCSESFEAVQDMEPNRIHMAWQVIQYFLLTCGEVVYSVTGLDFSYSQAPSNMKSVLQAGWLLTVAVGNIIVLIVAEAGSLPDQWAEYLLFASLLVAVSIIFAIMAYFYTYIDPNEIEAKFKELEPEDKKRKEMQMTAKDNMAYVHNENTNIKQTKI
notes: cRNA-expressed in Xenopus laevis oocytes; construct not described here (previously cloned zebrafish PepT1)
B2: zebrafish PepT1a (Slc15a1a) (Danio rerio) (protein)
chain: MPDSKMDETKKKKKKTAECCGYPISIFFIVVNEFCERFSYYGMRAVLVLYFRYFLLWDDDLATSIYHAFVALCYLTPILGAIIADSWLGKFKTIIYLSIVYAVGQVVMAVSTIHDITDANRDGTPDNFTLHIALSMLGLVLIALGTGGIKPCVAAFGGDQFQEHQSRQLNTFFSVFYLCINAGSLLSTLITPVLRAQECGIHTQQQCYPLAFGVPAALMVVSLVVFIAGSGMYTKTAPEGNIMGSVCKCIWFALNNRFRHRSDIYPKREHWMDWAEEKYDKLLIAQIKMVLKVLFLYIPLPMFWTLFDQKGSRWTLQATTMTGDFGGFVLQPDQMQTVNPILILTLVPIMDRIIFPLIKKCGLNFSPLKRMTVGMLFAATAFIAAALVQMEIDKTLPNFPSSSESQLKVVNMHSESLIVTVPSQEPLLIGSFESSPDYITFDQQDIRLAFNTTPEINKDLSLIKGSRQTLIIPSEPAEMYLKEDIKSKPKEGKNAVRFVNGWTAYLNITNLESSLQPSETSNYTLVSQGMRKFTLTDGIQSCEFSRKFGFGSSYTFLIPSDLFSTDCESIKEIEDMQPNSVHMALQIPQYFLITTGEVMFSVTGLQFSYSQAPKNMKSVLQAGWLCTNAVGNIIVLIVAELGKLPKQWAEYVLFASLLVAVSIIFSIMAYFYTYIDPAEIEAEILKQQETDPDKKKKKETLEMEEKENEQEIKQTKI
notes: full-length cDNA cloned from zebrafish intestine, 717 residues, pSPORT1, cRNA in Xenopus laevis oocytes; untagged

Key:
[1] = substrate: NCC(=O)N[C@@H](CCC(N)=O)C(=O)O; assay: two-electrode voltage clamp, transport current in Xenopus oocytes; format: cell-based, Danio rerio; settings: pH 6.5, -60 mV, NaCl buffer, proton-coupled
From the text: two-electrode voltage clamp, transport current in Xenopus oocytes on zebrafish PepT1b (Slc15a1b)

[2] = substrate: NCC(=O)N[C@@H](CCC(N)=O)C(=O)O; assay: as above; format: cell-based, Danio rerio; settings: pH 6.5, -60 mV, NaCl buffer, proton-coupled; remark: listed apart in the source
From the text: two-electrode voltage clamp, transport current in Xenopus oocytes on zebrafish PepT1a (Slc15a1a)

Protein	K0.5 [1] [mmol/L]	K0.5 [2] [mmol/L]
B1	0.13 ± 0.02	
B2		0.24 ± 0.07
